Laboratory results as given in patent US20230416343A1 (SORRENTO THERAPEUTICS, published 2023).
Several values for one entry are separate records, joined by “and”; a condition that tells them apart may be missing. Equal values may be shown once. Read-outs that look alike come from different tables or passages of the source.

Experiments:
[1] = biological target: SARS-CoV-2 spike protein expressed on HEK293 cells (SARS-CoV-2, UniProt P0DTC2 14-1273)
[2] = biological target: T1, SARS-CoV-2 D614G mutant spike protein expressed on HEK293 cells (SARS-CoV-2, UniProt P0DTC2 14-1273)
[3] = biological target: SARS-CoV-2 variant spike protein E484K on HEK293 cells (SARS-CoV-2, UniProt P0DTC2 14-1273)
[4] = biological target: SARS-CoV-2 variant spike protein F490S on HEK293 cells (SARS-CoV-2, UniProt P0DTC2 14-1273)
[5] = biological target: SARS-CoV-2 variant spike protein S494P on HEK293 cells (SARS-CoV-2, UniProt P0DTC2 14-1273)
[6] = biological target: SARS-CoV-2 variant spike protein triple mutant K417N, E484K, and N501Y on HEK293 cells (SARS-CoV-2, UniProt P0DTC2 14-1273)
[7] = biological target: T1, SARS-CoV-2 D614G mutant spike protein …; remark: listed apart in the source
[8] = biological target: S protein of live SARS-CoV-2 strain 2020001 (spike protein having the D614G mutation) (SARS-CoV-2, UniProt P0DTC2 14-1273); assay: cell-based or functional assay
[9] = biological target: S protein of live SARS-CoV-2 Alpha variant virus (SARS-CoV-2, UniProt P0DTC2 14-1273); assay: cell-based or functional assay

B1: S1D7270LALA antibody (STI-2020) (antibody, V domains shown)
VH: EVQLVESGGGLIQPGGSLRLSCAASGFTVSSNYMSWVRQAPGKGLEWVSIIYPGGSTEYADSVKGRFTISRDNSRNTLYLQMNSLRAEDTAVYYCARELGYYGMDVWGQGTTVTVSS
VL: DIQMTQSPSSVSASVGDRVTITCRASQGISTWLVWYQQKPGKAPNLLIYGASSLQSGVPSRFSGSGSGTDFTLTISSLQPEDFATYYCQQANAYPYTFGQGTKLEIK
EC50 [1]: 0.12 µg/mL | EC50 [2]: 0.13 µg/mL | EC50 [3]: 140 µg/mL | EC50 [4]: 48 µg/mL | EC50 [5]: 131 µg/mL | EC50 [6]: > 10000 µg/mL | EC50 [7]: 130 µg/mL | IC50, inhibition of cytopathic effect (CPE) on Vero E6 cells, live virus [8]: 0.055 µg/mL | IC50, plaque reduction neutralization test on Vero E6 cells, live virus [9]: 0.00908 µg/mL and 0.0164 µg/mL
